From PMC12704277

Experiments:
[1] = molecular target: NCP-5′linker (nucleosome core particle with H3K9me3 and a single hemimethylated CpG site in the 5′-linker DNA) (human) (UniProt P04908); test: thermal stability assay (SYPRO Orange); 0.2 mg/ml protein; 20 mM Tris–HCl pH 7.5, 150 mM NaCl, 1 mM DTT; heated from 25 °C to 90 °C
[2] = molecular target: NCP-3′linker (nucleosome core particle with H3K9me3 and a single hemimethylated CpG site in the 3′-linker DNA) (human) (UniProt P04908); test: as above
[3] = molecular target: NCP-601 (nucleosome core particle with H3K9me3 and a single hemimethylated CpG site within the 3′-Widom 601 sequence) (human) (UniProt P04908); test: as above
[4] = molecular target: NCP-5′linker (nucleosome core particle with H3K9me3 and a single hemimethylated CpG site in the 5′-linker DNA) (human) (UniProt P04908); test: mass photometry; UHRF1 and NCP mixed at a UHRF1–NCP ratio of 1:4, on ice 30 min; final 25 nM in 20 mM Tris–HCl pH 7.0, 150 mM NaCl
[5] = molecular target: NCP-3′linker (nucleosome core particle with H3K9me3 and a single hemimethylated CpG site in the 3′-linker DNA) (human) (UniProt P04908); test: as above
[6] = molecular target: NCP-601 (nucleosome core particle with H3K9me3 and a single hemimethylated CpG site within the 3′-Widom 601 sequence) (human) (UniProt P04908); test: as above

- Tm (denaturation temperature of UHRF1 bound to the NCP) [1]: 44.2 °C
- Tm (denaturation temperature of UHRF1 bound to the NCP) [2]: 44.8 °C
- Tm (denaturation temperature of UHRF1 bound to the NCP) [3]: 42.8 °C
- stoichiometry N [4]: 1
- stoichiometry N [5]: 1
- stoichiometry N [6]: 1
Substance: UHRF1 (ubiquitin-like with plant homeodomain and RING finger domain 1), full-length human, WT (from UniProt Q96T88 1-793) (enzyme)
